Assay: yeast display, Sf9 membrane polyspecificity reagent, FACS + sequencing; frameworks hold sequencing errors
How it was run: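 After 36–48 hours of galactose induction, yeast (Saccharomyces cerevisiae BJ5465) displaying a synthetic nanobody library were stained at 4 °C for 1 hour with 10% biotinylated, detergent-solubilized Sf9 membrane reagent. Streptavidin microbeads enriched the stained cells before FACS sorting into low and high (top ~1%) gates on anti-HA and streptavidin fluorescence. Each clone's polyreactivity label reflects its gate of origin.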

| Sequence | polyreactivity (PSR sort gate) |
| --- | --- |
| QVQLVESGGGLVQAGGSLRLSCAASGSIFTINAMGWYSQAPGKERELVAALTSGGSTSYADSVKGRFTISRDIAKNTVYLQMNSLKPEDTAVYYCAADAKRFYPYRWRLYYWGQGTQVTVSS | high polyreactivity |
| QGQLVESGGVLVQAGGSLRLSCAASGSIIQPYAMGWYRQAPGKERELVAAISRGGTTYYADSVKGRFTISRDNAKNTVYLQMNSLKPEDTAVYYCAVKGYRYGTRYDYWGQGTQVTVSS | high polyreactivity |
| QVQRVESGGGFVQAGGSLRLSSAASGFTFGAYAMGWYRQAPGKEMELVASISWSGGSTYYADSVKGRFTISRVNAKNTVYLQMNSLKPEDTAVYYCNKDFVYPDDDGLFDYWGQGTQVTVSS | low polyreactivity |
| QVQLVDSGGGLVQAGGSLRLSCAASGSIFYNYVMGWCRQAPGKEREMVAAISSGGGTNYADSVKGRFTISRDNAKYTVYLQMNSLKPEDTAVYYCAKASAYGLANDYDYWGQGTQVTVSS | low polyreactivity |
| QDQLVESGGGLVQAGGSLRLSCAASGSTFQDYAMGWYRQAPGKERELVAAITYSGGSTYYADSVKGRFTISRDIAKNTVYLQMNSLKPEDTAVYYCAAKDTTVFYYDDDYWGHGTQVTVSS | low polyreactivity |
| QVQLVESGGGLVQAGGSLRLSCAASGRIFVFYAMGWYRQAPGKERELVAAITSGGSTYYADSVKGRFTISRDNAKNTVYLQMNSLKPEDTAVYYCAARGRVSWSTYWYEYWGQGTQVTVSS | high polyreactivity |
| QVQLVESGGGLVQAGGSLRLSCAAARIFVYNAMGWYRQAPGKERELVATITSSGGITYYADSVKGRFTISRDNAKNTVYLQMKSLKPEDTAVYYCNKVRRYYYRTHNVYWGQGTQVTVSS | high polyreactivity |
| QVQLVESGGGLVQAGGSLRLSCAASGFIFRRNAMGWYRQAPGKERELVAVISSRGGTYYADSVKGRFTISRDNAKNTVYLQMNSLKPEDTAVYYCAVDRGKYFPYRYDYWGQGTQVTVSS | high polyreactivity |
| QVQLVESGVGLVQAGGRLRLSCASSAIIFKIYAMGWYRQAPGKERELVADITSVGSTKYADSVKGRFTISRDNAKNTVYLQMNSLKPEDTAVYYCATDWVTSHDDDYWGQGTQVTVSS | low polyreactivity |
| QVQLVESGGGLVQAGGSLRLSCAASGLTFRRYAMGWYRQAPGKERELVAAINSRGGSTYYADSVKGRFTISRDNAKNTVYLQMNSLKPEDTAVYYCATRSFGRMDYWGQGTQVTVSS | high polyreactivity |
| QVQLVESGGGLVQAGGSLRLSCAASGRTFLVNAMGRYREAPGKVREFVAAITSRSGRTNYADSVKGRFTISRDNAKNTLYLQMNRLQPEDTAVYYCNAEGYTVKYWYSRYDYWGQGTQVTVSS | high polyreactivity |
| QVQLVESGGGLVQAGGSLRLSSAASGNIIKYYAMGCYRQEPGKERELVAAINWSGGSTYYADSVKGRFTISRDNAKNTVYLQMNSLKPEDTAVYYCNVFSSGYYLFDYWGQGTQVTVSS | high polyreactivity |
| QVQLGESGGGLVQAGGSLRLSCAASGRIFQHNTMGWYRQAPGKEREFVAAIRRSGGSTYYADSVKGRFTISRDNAKNTVYLQMNSLKPEDTAVYYCAARDYPTGTRRWGGGDSWGQGTQVTLSS | low polyreactivity |
| QVQLVESGGGLVQAGGSIRLSCAASGSTFFQYAMGWYRQAPGKERELVAAISSRGGRTYYADSVKGSFTISRDNAKNTVYLQMNSLKPEDTAVYYCAVDHLTRSGDGEYWGQGTQVTVSS | high polyreactivity |
| QVQLVESGGGLVQAGGSLRLSCAASGFIFRGYAMGWYRQAPGKERELVAAISTGGGRTYYADSVKGRFTISRDNAKNTVYLQMNSLKPEDTAVYYCNRRSYTQVLMDYWGQGTQVTVSS | high polyreactivity |
| QVQLVESGGGLVQAGGSLRLSCAASGGIFSYYAMGWYRQAPGKEREFVAAIDWGGGSTYYADSVKGRFTISRDNAKNTVYFQMNSLKPEDTAVYYCAAEIYPIGWDDYDYWGQGTQVTVSS | low polyreactivity |
| QVQLVETGGGLVQAGGTLRLAVLPPDLPSTLNDMGWYRQATGKERELVAAITRGGSTNYADSVKGRFTISRDNAKNTVYLLMNSLKPEDTAVYYCAARSAGWRDGGDYWGQGTQVTVSS | low polyreactivity |

From the nanobody polyreactivity screen of Harvey et al. (2022)
